{"source": "patent US7700353B2", "about": "“Compositions and methods for inducing apoptosis in tumor cells” (E-P Therapeutics, Inc., priority 1998, dated 2010)", "test_system": "SK-N-F1 neuroblastoma cells", "test": "Neurite-like process outgrowth / morphological differentiation", "format": "cell-based, human", "experimental": "Cells under various treatment conditions were maintained at 37° C. in a 5% CO2 incubator and observed from 30 minutes to 72 hours after incubation (synthetic human Ea- and Eb-peptide were chemically synthesized at the Biotechnology Center, University of Connecticut). For treatment with synthetic hEa, hEb peptide or hlGF-I, 1×10^5 cells were plated in each well of a 12-well culture plate in DMEM/F12 (1:1) supplemented with 0.4-3.2 µM of synthetic hEa-, hEb-peptide and/or 5-10 nM of hlGF-I.\nNeuroblastoma SK-N-F1 cells (10^5) were seeded into 12-well culture plates in DMEM/F12 (1:1) supplemented with 0-3.2 µM of synthetic hEb-peptide, or buffer control, and incubated at 37° C. in a 5% CO2 humidified incubator.\nCell images were taken by random sampling at various time points using a MicroMAX CCD camera (Princeton Instruments, Bozeman, Mont.). Approximately 1000 cells were analyzed from each treatment, carried out in triplicate. Cells with neurites longer than one cell body diameter (>20 µm for SK-N-F1 cells) were scored as positive neurite-bearing (Fagerstrom, et al., Cell Growth Differ., 7: 775-85, 1996; Morrione, et al., Cancer Res. 60: 2263-72, 2000). The percentage of neurite-bearing cells and the respective length of neurites were measured with reference to a stage micrometer and analyzed using the public domain NIH Image program (developed at the U.S. National Institutes of Health and available on the Internet at http://rsb.info.nih.gov/nih-image).\nTo further characterize the dose-response relationship and time course of hEb peptide in inducing neurite-like process outgrowth, SK-N-F1 neuroblastoma cells were treated with various amounts (0 to 3.2 µM) of hEb peptide over a course of 72 hours. Images of cells were taken by random sampling after 1 h, 6 h, 24 h, 48 h and 72 h of incubation (see FIG. 11B). The average length of neurite-like process outgrowth was measured by random sampling of more than 1000 cells at various time points. The neurite-like processes started to be visible as early as 0.5-1 hour after the addition of hEb peptide. The effect of hEb peptide in inducing neurite-like outgrowth was dose-dependent, as evident from a comparison of cells treated with 0.4 µM hEb peptide with those treated with 0.8-3.2 µM hEb peptide over 24-72 hours. The maximum effect of hEb peptide was observed 48 hours after the addition of 3.2 µM hEb peptide, with an average neurite length of 50 to 60 µm (Table 1, below)."}
{"molecule": "hEb: chemically synthesized human Eb peptide of pro-IGF-I, 77 amino acid residues (SEQ ID NO:1) (peptide, listed as Homo sapiens) RSVRAQRHTDMPKTQKYQPPSTNKNTKSQRRKGWPKTHPGGEQKEGTEASLQIRGKKKEQRREIGSRNAECRGKKGK", "values": [{"measurement": "Neurite length", "setting": "0.4 μM, 6 h", "result": "31 ± 7.6", "unit": "μm"}, {"measurement": "Neurite length", "setting": "0.4 μM, 24 h", "result": "29 ± 5.2", "unit": "μm"}, {"measurement": "Neurite length", "setting": "0.4 μM, 48 h", "result": "35 ± 0.9", "unit": "μm"}, {"measurement": "Neurite length", "setting": "0.4 μM, 72 h", "result": "32 ± 3.1", "unit": "μm"}, {"measurement": "Neurite length", "setting": "0.8 μM, 2 h", "result": "33 ± 2.1", "unit": "μm"}, {"measurement": "Neurite length", "setting": "0.8 μM, 6 h", "result": "36 ± 0.6", "unit": "μm"}, {"measurement": "Neurite length", "setting": "0.8 μM, 24 h", "result": "38 ± 3.9", "unit": "μm"}, {"measurement": "Neurite length", "setting": "0.8 μM, 48 h", "result": "43 ± 1.0", "unit": "μm"}, {"measurement": "Neurite length", "setting": "0.8 μM, 72 h", "result": "41 ± 2.5", "unit": "μm"}, {"measurement": "morphological change", "setting": "1.6 μM or 3.2 μM", "result": "differentiated into a neuron-like morphology"}, {"measurement": "Neurite length", "setting": "1.6 μM, 6 h", "result": "38 ± 3.5", "unit": "μm"}, {"measurement": "Neurite length", "setting": "1.6 μM, 24 h", "result": "39 ± 1.8", "unit": "μm"}, {"measurement": "Neurite length", "setting": "1.6 μM, 48 h", "result": "47 ± 3.9", "unit": "μm"}, {"measurement": "Neurite length", "setting": "1.6 μM, 72 h", "result": "48 ± 2.8", "unit": "μm"}, {"measurement": "Neurite length", "setting": "3.2 μM, 6 h", "result": "39 ± 2.2", "unit": "μm"}, {"measurement": "Neurite length", "setting": "3.2 μM, 24 h", "result": "45 ± 1.7", "unit": "μm"}, {"measurement": "Neurite length", "setting": "3.2 μM, 48 h", "result": "52 ± 3.7", "unit": "μm"}, {"measurement": "Neurite length", "setting": "3.2 μM, 72 h", "result": "48 ± 2.7", "unit": "μm"}, {"measurement": "time at which neurite-like processes started to be visible", "setting": "after addition of peptide", "result": "0.5 to 1", "unit": "h"}, {"measurement": "increase in the percentage of neurite-bearing cells", "setting": "hEb-peptide combined with mature hIGF-I, 1-4 hours after stimulation", "result": "20-30%"}, {"measurement": "in vitro effective concentration", "setting": "synthetic peptide", "result": "0.4 to 3.2", "unit": "µM"}]}
